Laboratory results published in the supplement of paper PMC10126150.
± gives the standard deviation of the averaged measurements.

Test system: ATP
Assay: switch fluorescence ratio, 500 uM ATP over buffer (Cy3 cluster intensity, sum of 5 cycles each) (fold (ratio)); higher = stronger signal-on switching upon ATP binding; sequences stand for … in TCGTCGGCAGCGTCAGATGTGTATAAGAGACAGTTTTTTTTTTTTTTTTTTTTTTTTT…TC
Details: aptamer strand: ATP DNA aptamer (quencher-CACCTGGGGGAGTATTGCGGAGGAAGG + anchor), 100 nM annealed; ATP concentration: 500 uM
Outline: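 Per cluster, summed Cy3 intensity from the target cycles was divided by that from the buffer cycles to give the fluorescence ratio, then averaged per switch-domain sequence. Clusters outside 100-1000 RFU were excluded. The Cy3-labelled switching-strand clusters, on a modified Illumina MiSeq flow-cell, were annealed to 100 nM quencher-labelled ATP aptamer and imaged in selection buffer, then after 15 min with 500 uM ATP at 22 °C, for five cycles with NaOH stripping and re-annealing between them.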
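Also: ATP exposure 15 min at 22 °C before imaging.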

Sequence	switch fluorescence ratio
ATCGAAAAGG	0.998 ± 0.027
ATCGAAGGTA	0.985 ± 0.013
ATCGAATTGG	0.998 ± 0.026
ATCGAGGCGT	1.01 ± 0.019
ATCGAGGTCC	1.01 ± 0.074
ATCGATGAGC	1.006 ± 0.004
ATCGATGCTT	0.979 ± 0.012
ATCGATTGAG	0.971 ± 0.015
ATCGATTTCT	1.004 ± 0.0049
ATCGCAGATT	1.03 ± 0.019
ATCGCCCGTT	1.01 ± 0.016
ATCGGCGGTG	0.986 ± 0.025
ATCGGCTCTC	1.03 ± 0.025
ATCGGCTCTG	0.991 ± 0.043
ATCGGGAATT	1.009 ± 0.0044
ATCGGGAGGG	1 ± 0.013
ATCGGGATTA	0.987 ± 0.021
ATCGGGGGCT	0.98 ± 0.038
ATCGGGGTGG	1 ± 0.071
ATCGGGTATG	0.9987 ± 0.0082
ATCGGTATTT	1.19 ± 0.39
ATCGGTCGGG	1.011 ± 0.0088
ATCGGTCTTT	0.997 ± 0.084

Sequence	switch fluorescence ratio
ATCGGTGACA	1 ± 0.035
ATCGGTGTGT	0.989 ± 0.045
ATCGGTTGTG	1.01 ± 0.029
ATCGTATATG	0.972 ± 0.043
ATCGTATGTA	0.9708 ± 0.0055
ATCGTGGTCA	0.987 ± 0.018
ATCGTGTGTG	0.991 ± 0.035
ATCGTGTTGT	1.02 ± 0.015
ATCGTTGTGG	0.9893 ± 0.0048
ATCTAAAGGG	0.999 ± 0.015
ATCTATCCTT	1.01 ± 0.036
ATCTATCTGT	1 ± 0.027
ATCTCACTT	1.02 ± 0.03
ATCTCCTGCC	1.475 ± 0.0051
ATCTGATGGC	0.957 ± 0.039
ATCTGCATGA	1.01 ± 0.063
ATCTGCCGGT	0.981 ± 0.017
ATCTGCGGGA	1.05 ± 0.042
ATCTGGAACG	0.988 ± 0.02
ATCTGGGTTA	0.993 ± 0.013
ATCTGGTCAT	0.972 ± 0.016
ATCTGTGGA	1.015 ± 0.0024
ATCTGTTGTC	1.06 ± 0.021

Sequence	switch fluorescence ratio
ATCTTCGGTT	1 ± 0.055
ATCTTGATTG	1.03 ± 0.016
ATCTTGGGGC	0.984 ± 0.023
ATCTTGGTCC	0.9948 ± 0.003
ATCTTGTGGG	0.9678 ± 0.0064
ATCTTTATGG	0.964 ± 0.014
ATCTTTTGAG	0.97588 ± 0.00047
ATGAAAAAAG	0.993 ± 0.016
ATGAAAAAAT	0.974 ± 0.015
ATGAAAAGGA	0.97123 ± 0.00096
ATGAAAGGCT	1.02 ± 0.0022
ATGAAAGTAG	1.005 ± 0.0012
ATGAAAGTCT	0.976 ± 0.042
ATGAACGTTT	1.2 ± 0.28
ATGAAGCATG	1.08 ± 0.04
ATGAAGGCGG	1.05 ± 0.068
ATGAAGGGGA	1 ± 0.049
ATGAATATTA	0.99254 ± 0.00014
ATGAATCGTC	0.9927 ± 0.0037
ATGAATCTAA	1.01 ± 0.046
ATGAATTCGG	1.01 ± 0.011
ATGACACGGA	1.04 ± 0.01
ATGACCCCTC	1.044 ± 0.007

Sequence	switch fluorescence ratio
ATGACGCGTC	0.982 ± 0.045
ATGAGAATGC	1.024 ± 0.0063
ATGAGAGAAT	1.0144 ± 0.0004
ATGAGAGCGG	0.996 ± 0.096
ATGAGAGGGC	1.054 ± 0.0092
ATGAGCGCAC	1.06 ± 0.024
ATGAGCGGGG	0.98 ± 0.058
ATGAGCGTCA	0.9904 ± 0.0017
ATGAGGCAGT	1.12 ± 0.039
ATGAGGGCCA	1.01 ± 0.059
ATGAGGGGCG	1.02 ± 0.041
ATGAGGTAGG	1.03 ± 0.05
ATGAGGTCTC	0.98 ± 0.046
ATGAGGTGAT	1.057 ± 0.0041
ATGAGGTGGG	0.992 ± 0.036
ATGAGGTTGC	0.978 ± 0.011
ATGAGTCCGT	1.16 ± 0.017
ATGAGTTCTC	1 ± 0.042
ATGATACAGT	1.021 ± 0.0067
ATGATAGAGA	1.06 ± 0.021
ATGATAGATA	1.004 ± 0.0047
ATGATAGCTT	1 ± 0.026
ATGATATTTG	1.009 ± 0.006

Sequence	switch fluorescence ratio
ATGATCAAAT	1 ± 0.054
ATGATCAGTG	0.98 ± 0.056
ATGATCCGTT	1.001 ± 0.0059
ATGATCTTCC	2.3 ± 0.091
ATGATGACGA	1.06 ± 0.11
ATGATGGTGG	1.02 ± 0.057
ATGATGGTTC	1.01 ± 0.012
ATGATGTAGG	1.033 ± 0.0075
ATGATGTATG	0.989 ± 0.027
ATGATGTGGA	1.01 ± 0.077
ATGATGTTGA	1 ± 0.04
ATGATTTGAG	0.9905 ± 0.0022
ATGCAAACGA	1.23 ± 0.065
ATGCAATGGA	1 ± 0.064
ATGCACCAGG	2.55 ± 0.19
ATGCACGTAT	1.03 ± 0.048
ATGCACTCGA	1.03 ± 0.012
ATGCAGCGGG	1.01 ± 0.028
ATGCAGGATT	0.981 ± 0.02
ATGCAGTCTA	1.017 ± 0.005
ATGCATCGGG	0.9974 ± 0.0049
ATGCATGATT	0.9822 ± 0.0051
ATGCATGGAG	1.03 ± 0.016

Sequence	switch fluorescence ratio
ATGCATGGTT	1.02 ± 0.054
ATGCCCAGGG	1.61 ± 0.04
ATGCGAGTAT	1.023 ± 0.0018
ATGCGCACGG	1.064 ± 0.009
ATGCGCCCTG	1 ± 0.015
ATGCGGGATT	1.01 ± 0.023
ATGCGGTAGA	1.02 ± 0.042
ATGCGTGTTT	1.003 ± 0.0014
ATGCTAAAAG	1.008 ± 0.0096
ATGCTATGTA	1.01 ± 0.033
ATGCTCAGTT	0.9836 ± 0.0062
ATGCTCTGCC	0.992 ± 0.029
ATGCTGCCTG	1.01 ± 0.019
ATGCTGGGTC	0.973 ± 0.028
ATGCTTATCA	0.9807 ± 0.0051
ATGGAAAAAG	0.963 ± 0.046
ATGGAAAAGA	0.978 ± 0.016
ATGGAAAGCA	1.05 ± 0.029
ATGGAAATGG	0.996 ± 0.024
ATGGAAGGTT	0.991 ± 0.033
ATGGACCTGC	1.06 ± 0.064
ATGGACGCTA	1.12 ± 0.048
ATGGACGGGT	0.996 ± 0.03

Sequence	switch fluorescence ratio
ATGGAGGCGT	0.994 ± 0.015
ATGGATAAGA	1 ± 0.014
ATGGATGTGG	0.979 ± 0.055
ATGGATGTTA	0.978 ± 0.032
ATGGATTTGC	1.02 ± 0.081
ATGGCACCGG	1.018 ± 0.0069
ATGGCAGGCA	0.9929 ± 0.0054
ATGGCCGAGT	1.03 ± 0.038
ATGGCTAATA	0.9806 ± 0.0057
ATGGCTACCG	1.01 ± 0.033
ATGGGAGAAT	0.9801 ± 0.009
ATGGGAGGCG	0.982 ± 0.043
ATGGGATGGC	0.97 ± 0.031
ATGGGATTAA	1.032 ± 0.0025
ATGGGCAGTC	1.21 ± 0.41
ATGGGCCCAT	1.01 ± 0.011
ATGGGCGATG	1.01 ± 0.055
ATGGGCGGGT	1 ± 0.035
ATGGGCTGAA	1.021 ± 0.0092
